Results published in JP2022109630A (dated 2022).

Tests used:
Experiment in all cases: ELISA, immobilised recombinant L7/L12 (10 ng/mL), antibody 10 ug/mL
[1] = target: T1, リステリア・モノサイトゲネス(LM)のリボソームタンパク質L7/L12 (リステリア・モノサイトゲネス (Listeria monocytogenes))
T1 construct: also called Listeria monocytogenes ribosomal protein L7/L12; LM L7/L12

[2] = target: T2, 肺炎球菌(SP)のリボソームタンパク質L7/L12 (肺炎球菌 (Streptococcus pneumoniae))
T2 construct: also called Streptococcus pneumoniae ribosomal protein L7/L12; SP L7/L12

淋菌(NG)のリボソームタンパク質L7/L12 = target: T3, 淋菌(NG)のリボソームタンパク質L7/L12 (淋菌 (Neisseria gonorrhoeae))
T3 construct: also called Neisseria gonorrhoeae ribosomal protein L7/L12; NG L7/L12

緑膿菌(PA)のリボソームタンパク質L7/L12 = target: T4, 緑膿菌(PA)のリボソームタンパク質L7/L12 (緑膿菌 (Pseudomonas aeruginosa))
T4 construct: also called Pseudomonas aeruginosa ribosomal protein L7/L12; PA L7/L12

[3] = target: T5, サルモネラ菌(SE)のリボソームタンパク質L7/L12 (サルモネラ菌 (Salmonella enteritidis))
T5 construct: also called Salmonella enteritidis ribosomal protein L7/L12; SE L7/L12

[4] = target: T6, インフルエンザ菌(HI)のリボソームタンパク質L7/L12 (インフルエンザ菌 (Haemophilus influenzae))
T6 construct: also called Haemophilus influenzae ribosomal protein L7/L12; HI L7/L12

[5] = target: T7, 黄色ブドウ球菌(SA)のリボソームタンパク質L7/L12 (黄色ブドウ球菌 (Staphylococcus aureus))
T7 construct: also called Staphylococcus aureus ribosomal protein L7/L12; SA L7/L12

[6] = target: T8, 溶連菌(SPY)のリボソームタンパク質L7/L12 (溶連菌 (Streptococcus pyogenes))
T8 construct: also called Streptococcus pyogenes ribosomal protein L7/L12; SPY L7/L12

[7] = target: T9, カンピロバクター・ジェジュニ(CJ)のリボソームタンパク質L7/L12 (カンピロバクター・ジェジュニ (Campylobacter jejuni))
T9 construct: also called Campylobacter jejuni ribosomal protein L7/L12; CJ L7/L12

[8] = target: T10, 肺炎マイコプラズマ(MP)のリボソームタンパク質L7/L12 (肺炎マイコプラズマ (Mycoplasma pneumoniae))
T10 construct: also called Mycoplasma pneumoniae ribosomal protein L7/L12; MP L7/L12

[9] = target: T11, 肺炎クラミジア(CP)のリボソームタンパク質L7/L12 (肺炎クラミジア (Chlamydia pneumoniae))
T11 construct: also called Chlamydia pneumoniae ribosomal protein L7/L12; CP L7/L12

[10] = target: T12, クレブシエラ・ニューモニエ(KP)のリボソームタンパク質L7/L12 (クレブシエラ・ニューモニエ (Klebsiella pneumoniae))
T12 construct: also called 肺炎桿菌; Klebsiella pneumoniae ribosomal protein L7/L12

[11] = target: T13, クラミジア・トラコマチス(CT)のリボソームタンパク質L7/L12 (クラミジア・トラコマチス (Chlamydia trachomatis))
T13 construct: also called Chlamydia trachomatis ribosomal protein L7/L12; CT L7/L12

[12] = target: T14, 髄膜炎菌(NM)のリボソームタンパク質L7/L12 (髄膜炎菌 (Neisseria meningitidis))
T14 construct: also called Neisseria meningitidis ribosomal protein L7/L12; NM L7/L12

[13] = target: T15, モラキセラ菌(MC)のリボソームタンパク質L7/L12 (モラキセラ菌 (Moraxella catarrhalis))
T15 construct: also called Moraxella catarrhalis ribosomal protein L7/L12; MC L7/L12

[14] = target: T16, 百日咳菌(BP)のリボソームタンパク質L7/L12 (百日咳菌 (Bordetella pertussis))
T16 construct: also called Bordetella pertussis ribosomal protein L7/L12; BP L7/L12

Measured: absorbance at 450 nm

B1: 汎用性抗体A(PA51B2) (antibody, V domains shown)
VH: QVQLQQPGSVLVRPGASVKLSCKPSGYTFTGSWMHWTKQRPGQGLEWIGEIHPYSGNTNYNEKFRVKATLTVDTSSSTTYVDLSSLTSDDSAVYYCASGDFDAGFTYWGQGTLVTVSA
VL: DIVLTQSPASLAVSLGRRATISCKASQSVDYDGDSYMNWYQQKPGQPPKLLIYVASNLESGIPARFSGSGSGTDFTLNIHPVEEEDAATYYCQQTNEDPFTFGAGTKLELK
notes: also called PA51B2; general-purpose antibody A
≥ 0.3 absorbance (450 nm): [1] | [2] | 淋菌(NG)のリボソームタンパク質L7/L12 | 緑膿菌(PA)のリボソームタンパク質L7/L12 | [3] | [4] | [5] | [6] | [7] | [8] | [9] | [10] | [11] | [12] | [13] | [14]

B2: 汎用性抗体C(CP141A190.1) (antibody, V domains shown)
VH: QVQLQQPGAELVKPGASVKLSCKTSGYNFTSNWIHWVKQRPGQGLEWIGEINPSNGRANYNEKFKNKATLTVDKSSSTAFMHLSSLTSEDSAVYFCSRGDFDEGFTYWGQGTLVTVSA
VL: QIVLTQSPAIMSASLGERVTMTCTASSNVNSDYLHWYQQKPGSSPRLWIYTTSNLASGVPTRFSGNGSGTSYSLTISSMEAEDAATYYCHQYHRSPRTFGGGTKLEIK
notes: also called CP141A190.1; general-purpose antibody C
≥ 0.3 absorbance (450 nm): [1] | [2] | 淋菌(NG)のリボソームタンパク質L7/L12 | 緑膿菌(PA)のリボソームタンパク質L7/L12 | [3] | [4] | [5] | [6] | [7] | [8] | [9] | [10] | [11] | [12] | [13] | [14]
